Results from patent publication US7792645B2, “Three-dimensional structure of chalcone isomerase and methods of use thereof” (The Salk Institute for Biological Studies, priority 2000, dated 2010).
Substitutions are numbered along the chain they refer to. Names and notes keep the numbering of the source.

Tests used:
CHI active site = target: T1, CHI active site (Medicago sativa, UniProt P28012); assay: Co-crystallization of CHI with (2S/2R)-naringenin, X-ray structure; type: binding, Medicago sativa (alfalfa); conditions: commercial mixture of (2S)- and (2R)-naringenin used for co-crystallization
T1 construct: histidine tag (pHIS8 vector) (N, cleaved yes); made in house; host or cells: E. coli BL21(DE3)
T1 sequence (P28012 1-222): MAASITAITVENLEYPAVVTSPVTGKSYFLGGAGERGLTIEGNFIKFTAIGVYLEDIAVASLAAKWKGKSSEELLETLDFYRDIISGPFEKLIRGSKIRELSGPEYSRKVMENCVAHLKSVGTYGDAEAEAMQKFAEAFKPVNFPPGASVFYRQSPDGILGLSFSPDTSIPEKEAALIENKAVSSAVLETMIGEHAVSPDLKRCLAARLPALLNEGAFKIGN
Experimental: Crystals of CHI (SEQ ID NO:1) were grown at 4° C. by vapor diffusion using the hanging drop method. A 2 μl drop containing a 1:1 mixture of 25 mg ml^−1 CHI and crystallization buffer (25% glycerol, 1.8-2.0 M ammonium sulfate and 0.05 M PIPES, pH 6.5) yielded diffraction quality crystals within a few days at 4° C. Crystals grew in space group P6522 with unit cell dimensions of a=90.37 Å; c=352.86 Å with two molecules per asymmetric unit and a solvent content of 72%. Native CHI diffraction data (105 K) were collected at beamline 7-1 of the Stanford Synchrotron Radiation Source (SSRL 7-1) on a 30 cm MAR imaging plate system. For generation of heavy atom derivatives, CHI crystals were soaked in mother liquor with either 1.2 mM K2OsCl6 or 1 mM HgCl2 for 12-16 hours. Heavy atom data (105 K) were collected at SSRL 9-1 on a 30 cm MAR imaging plate system. All images were indexed and integrated using DENZO and the reflections merged with SCALEPACK (Otwinowski, Z. & Minor, W., Methods Enzymol. 276:307-326, 1997). Data reduction was completed using programs from CCP4 (Collaborative Computational Project 4 (CCP4) Acta Crystallogr. D53:240-255, 1994) (See Table 3). […]

chalcone isomerase (CHI) [1] = assay: CHI enzyme assay, steady-state kinetics of 6′-deoxychalcone cyclization; type: biochemical, Medicago sativa (alfalfa); conditions: for kcat: cyclization of 6′-deoxychalcone, pH 7.5, substrate 2-50 μM; for kcat / Km: 25° C.; for Km: substrate 6′-deoxychalcone, pH 7.5
Experimental: CHI assays were performed at 25° C. in a 0.5 ml reaction volume containing 0.05 M Hepes (pH 7.5), 50 μM 6′-deoxychalcone, and 3% ethanol as co-solvent. Time-dependent decreases in 6′-deoxychalcone absorbance (λmax=390 nm; ε=29,400 M^−1 cm^−1) were monitored with a Beckman DU-640 spectrophotometer. Determination of steady-state kinetic constants used the standard assay system with varied concentrations of substrate (2-50 μM) following fitting to the Michaelis-Menton equation using KALEIDAGRAPH (Abelbeck Software).

[2] = target: T2, alfalfa chalcone synthase 2 (Medicago sativa, UniProt P30074); assay: Gel filtration and analytical ultracentrifugation for protein association in vitro; type: binding
T2 sequence (P30074 1-389): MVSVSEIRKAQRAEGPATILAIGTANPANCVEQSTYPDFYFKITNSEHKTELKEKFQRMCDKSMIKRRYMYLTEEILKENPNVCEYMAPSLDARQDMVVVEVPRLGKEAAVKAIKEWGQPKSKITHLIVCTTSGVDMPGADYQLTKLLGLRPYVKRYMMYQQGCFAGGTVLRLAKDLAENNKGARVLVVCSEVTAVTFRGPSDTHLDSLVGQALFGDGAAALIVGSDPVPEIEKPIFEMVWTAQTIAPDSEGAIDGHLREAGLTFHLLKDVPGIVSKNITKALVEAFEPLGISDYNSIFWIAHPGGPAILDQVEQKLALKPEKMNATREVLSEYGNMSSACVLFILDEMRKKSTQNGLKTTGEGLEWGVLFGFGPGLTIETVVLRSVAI

chalcone isomerase (CHI) [3] = conditions: cyclization of chalcone; cited from earlier work

For `O=C1C[C@@H](c2ccc(O)cc2)Oc2cc(O)cc(O)c21` [(2S)-naringenin, 5,7,4′-trihydroxyflavanone], the “binding to CHI active site in co-crystal” value (CHI active site) was “bound the CHI active site”.

B1: CHI wild-type: chalcone isomerase from Medicago sativa (alfalfa), SEQ ID NO:1, expressed in E. coli (protein, listed as Medicago sativa)
chain: T1 sequence (P28012 1-222) with R36X, L38X, T48X, Y106X, K109X, V110X, N113X, T190X, M191X
modifications: MOD_RES (36) Arg, Met, Lys, Ala, His or Gln
Molecule B1 has a kcat (chalcone isomerase (CHI) [1]) of 73.07 ± 8.62 s⁻¹, a kcat (chalcone isomerase (CHI) [1]; listed as wild-type CHI) of 73.07 s⁻¹ and a Km (chalcone isomerase (CHI) [1]) of 25.7 µM. For the same molecule, the “association of alfalfa CHI and alfalfa chalcone synthase 2” value [2] was “failed to detect association” and the “enzyme-catalyzed rate over spontaneous conversion rate” value (chalcone isomerase (CHI) [3]) was 10^7 fold.

B2: CHI Y106F: alfalfa chalcone isomerase mutant, Tyr 106 substituted by phenylalanine (protein, UniProt P28012 1-222, looked up, variant Y106F)
Chalcone--flavanone isomerase …: T1 sequence (P28012 1-222) with Y106F
In the case of B2, the “reduction in reaction rate” value (chalcone isomerase (CHI) [1]; Y106F mutant versus wild-type CHI, 6′-deoxychalcone) is reported as 100 fold, the kcat (chalcone isomerase (CHI) [1]) is reported as 1.15 ± 0.085 s⁻¹ and the kcat (chalcone isomerase (CHI) [1]; listed as CHI Y106F mutant) is reported as 1.15 s⁻¹. The Km (chalcone isomerase (CHI) [1]) was 29.1 µM.
